The supplement of paper PMC9170038

Tested on: MS2 coat protein
Test: apparent KD of MS2 coat protein; designed switch direction (-1 OFF switch, 1 ON switch): 1; higher = weaker reporter binding
Summary of the method: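 Three titration conditions were used: no input, 200 uM small-molecule ligand, and an oligonucleotide input. In each, SNAP-549-labelled MS2 coat protein was raised from 0.7 or 1.5 nM, doubling, to 3 µM over designed RNA switches transcribed on Illumina chips by stalled E. coli RNA polymerase. Curve fits of normalised cluster fluorescence gave values whose per-design median over clusters is the apparent KD.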

[1] = Eterna round: R95, input ligand: FMN 200 uM
[2] = Eterna round: R95, input ligand: microRNA oligo, concentration not stated
[3] = Eterna round: R95, input ligand: none
[4] = input ligand: microRNA oligo, concentration not stated

Row | Sequence | apparent KD of MS2 coat protein [1] [µM] | apparent KD of MS2 coat protein [2] [µM] | apparent KD of MS2 coat protein [3] [µM] | apparent KD of MS2 coat protein (input ligand: FMN 200 uM) [µM] | apparent KD of MS2 coat protein [4] [µM] | apparent KD of MS2 coat protein (input ligand: none) [µM]
1 | AUUUAACAAGCUUUUUGCUCGUCUUAUAAACAUGAGGAUCACCCAUGUAAUAGCGUGAGAGUUAUUAUAUAAAUAAU [JMF 87] (puzzle: Sensor for hsa-mir-208a) | 0.018 | 0.0331 | 0.0167 |  |  | 
2 | AUCAAAUACCUAGGAUAUAGUACACACAGCGGGCUAGAAGGAGGCGACCACGCUGACAUGAGGAUCACCCAUGUCCAACAGGAU [Eternabot solution 19] (Eterna round: R96, puzzle: Same State NG 1) |  |  |  | 0.0489 | 0.0378 | 0.0528
3 | AUUUAACAAGCUUUUUGCUCGUCUUAUAAACAUGAGGAUCACCCAUGUAAUAGCGUGAGAGUAAUUAUAUUAAUUAU [JMF 101] (puzzle: Sensor for hsa-mir-208a) | 0.0147 | 0.036 | 0.0147 |  |  | 
4 | UUUAGUUGCGGGCAGGAUAUGUAUUAAAAUACAUGAGGAUCACCCAUGUGAGGCCGAAAAGGCCUACAGAAGGGCCAAUCGCGAC [Laonerce - 22] (puzzle: Same State 2) | 0.0197 | 0.0494 | 0.063 |  |  | 
5 | AGACAUGAGGAUCACCCAUGUAUACACUAUAUCAGUGUAACAUAGGAUAUCCACCGCCAUGCUGUGGAGAAGGAUGAAACGGGC [Raerlaan] (Eterna round: R96, puzzle: Same State NG 3) |  |  |  | 0.211 | 0.0659 | 0.108
6 | GCACUGGCGGUAGGAUAUCUAGGAUAUGGGAAAGACUAAGUCUGUAGGUCACCUAACCCAGAAGGAGAGAAGGACACCGAAAGG [pwkr ssNG2 2FMN + F9.20] (Eterna round: R96, puzzle: Same State NG 2) |  |  |  | 0.115 | 0.0165 | 0.0129
7 | AGUCCAGCCUGAGCUGGACAAAAGCAUGUACAUGAGGAUCACCCAUGUCAUGUACAAGCUUUUUGCUCGUCUUAAAA [JL zipper 46] (Eterna round: R96, puzzle: Sensor for hsa-mir-208a) |  |  |  | 0.685 | 0.013 | 0.677
8 | CAAGAAAACGCAGGAUAUACCCGGACAACCCGGGUAGAAGGGUGACACAUGAGGAUCACCCAUGUACAUGGCAAUAACCAUGGA [Sobiais] (Eterna round: R96, puzzle: Same State NG 1) |  |  |  | 0.0152 | 0.0107 | 0.0354
9 | AUAAGGCAAGCUUUUUUCUCGUAGUGUAAACAUGAGGAUCACCCAUGUGCCCACCCUGGAUCUUUGGAUCGCGGAAC [Raxesori] (Eterna round: R96, puzzle: Sensor for hsa-mir-208a) |  |  |  | 0.103 | 0.0218 | 0.0905
10 | CAGCUCGUGUGAGGAUAUGCCGCCGUUUCGGCUGCAGAAGGUGCUACGUUACAUGAGGAUCACCCAUGUCUCUGUUGUUUCGUG [salish99_SSNG1_r04_963] (Eterna round: R96, puzzle: Same State NG 1) |  |  |  | 0.0208 | 0.0179 | 0.0232
11 | AUUAUUUAUGCAGGAUAUGAUUAACAUGAGGAUCACCCAUGUGGUGUUGUGAGUAAGGAGAGUGAUCAGAAGGGCAUUUCUUUU [JMF's solution 49] (Eterna round: R96, puzzle: Same State NG 2) |  |  |  | 0.596 | 0.315 | 0.492
12 | GGCCGGCCGAACGGAGGGCCACAUGAGGAUCACCCAUGUACAUAGGAUAUCAUGUCAACGAGGCAUGAGAAGGGUGAUUAAAGC [Orenriaran] (Eterna round: R96, puzzle: Same State NG 3) |  |  |  | 0.065 | 0.0729 | 0.0577
13 | AGCUAUUAAUCAGGAUAUGGUGACAUGAGGAUCACCCAUGUAUAGAUGAUUAAAUGUGGUCUAUACUAGAAGGGAUUACUAACA [SameState NG2 #53] (Eterna round: R96, puzzle: Same State NG 2) |  |  |  | 2.21 | 0.478 | 0.626
14 | GAUCGUUUGAUAGGAUAUCGCUAUACAUGAGGAUCACCCAUGUUUACCACGCUGGUUUUUCAUACCGAGAAGGAUUCUGAUGAA [salish99_SSNG02_r04_010] (Eterna round: R96, puzzle: Same State NG 2) |  |  |  | 0.0275 | 0.0278 | 0.0307
15 | GGUAUCGACGCAGGAUAUGCUAUCCUUUGGGUAGCAGAAGGGUGGACAUGAGGAUCACCCAUGUGGGUGCCAGGGCGUGAGCCC [JL SSNG1 1.83] (Eterna round: R96, puzzle: Same State NG 1) |  |  |  | 0.283 | 0.0128 | 0.44
16 | CUGAAAUGUCAAGGAUAUCACGUCGAUUAGACGUGAGAAGGUGAUCUGCACAUGAGGAUCACCCAUGUGUUACAUGGGAAUCAG [Brourd's SSNG1/1-A2 mod 15] (Eterna round: R96, puzzle: Same State NG 1) |  |  |  | 0.289 | 0.0903 | 0.624

Row | Sequence | apparent KD of MS2 coat protein [1] [µM] | apparent KD of MS2 coat protein [2] [µM] | apparent KD of MS2 coat protein [3] [µM] | apparent KD of MS2 coat protein (input ligand: FMN 200 uM) [µM] | apparent KD of MS2 coat protein [4] [µM] | apparent KD of MS2 coat protein (input ligand: none) [µM]
17 | GGAAAGAGGUAAGGAUAUGCAUGGCUGGGACAUGAGGAUCACCCAUGUUGGAGAAGAAAUCUAGGGUAGAAGGUACAAGGAAGG [AK SSNG2-V2-10] (Eterna round: R96, puzzle: Same State NG 2) |  |  |  | 0.24 | 0.22 | 0.203
18 | AGUCCAGCCUGAGCUGGACAAAAGCAUGUACAUGAGGAUCACCCAUGUUCAUGUACAAGCUUUUUGCUCGUCUUACC [salish99_208a_r3_079] (puzzle: Sensor for hsa-mir-208a) | 0.669 | 0.0158 | 0.722 |  |  | 
19 | GUAACAUGACGAGGAUAUGGUACAUGAGGAUCACCCAUGUAUGUACCACGACGCGUACGUCGAAUCCAGAAGGCGUCGUGAAUG [Mat - Same State NG 2 - JL mod - D21] (Eterna round: R96, puzzle: Same State NG 2) |  |  |  | 0.0265 | 0.0685 | 0.0701
20 | GCUGCAAUAAACGCCUACAUGAGGAUCACCCAUGUAUGUAGGCAGGAUAUCGUUUGCAAAGCAAACGAGAAGGGCUGUAGUAGC [Mat - Same State NG 3 - JL Mod - D38] (Eterna round: R96, puzzle: Same State NG 3) |  |  |  | 0.0526 | 0.0598 | 0.101
21 | CUGGCGCGCACAGGAUAUGCGGCCGGCAAGGUGGCAGAAGGGUGAUAAACAGACGACAUGAGGAUCACCCAUGUCGCAAAGAAU [Arsobe] (Eterna round: R96, puzzle: Same State NG 1) |  |  |  | 0.214 | 0.0713 | 0.0854
22 | AGAUCAUGACGAGGAUAUGGUACAUGAGGAUCACCCAUGUAUGUACCAUAACGCGUACGACGAAACCAGAAGGCGUCGUGGUCA [JL SSNG2 1.08] (Eterna round: R96, puzzle: Same State NG 2) |  |  |  | 0.0117 | 0.0148 | 0.027
23 | AGUCCAGCCUGAGCUGGACAAAAGCAUGUACAUGAGGAUCACCCAUGUUCAUGUACAAGCUUUUUGCUCGUCUUCAA [salish99_208a_r3_097x] (puzzle: Sensor for hsa-mir-208a) | 0.701 | 0.0137 | 0.525 |  |  | 
24 | UUUCCAUAGAUAGGAUAUCAGUUUACAUGAGGAUCACCCAUGUUCUCUUUGGUUAUAAUUAUAUCUGAGAAGGAUCUUGAUGAA [JR_SSNG2_Sub002] (Eterna round: R96, puzzle: Same State NG 2) |  |  |  |  | 0.0204 | 
25 | GGUAUCGACACAGGAUAUGCUAUCCUUUGGGUAGCAGAAGGGUGGACAUGAGGAUCACCCAUGUGGGUGCCAGGGCGUGAGCCC [JL SSNG1 1.84] (Eterna round: R96, puzzle: Same State NG 1) |  |  |  | 0.234 | 0.0211 | 1.04
26 | AGCUUUUAAUCAGGAUAUGGUCACAUGAGGAUCACCCAUGUAACGAUGAUAUAAUGUGGUCAAGACUAGAAGGGAUUGCUAACA [SameState NG2 #67] (Eterna round: R96, puzzle: Same State NG 2) |  |  |  | 0.172 | 0.232 | 0.288
27 | GUGGUCAGACAUGAGGAUCACCCAUGUGGAAUAAAUAACGGACAGGAUAUUUAAUAUAGGAUAUAGAAGAAGGGUUGAUUGGUG (Eterna round: R96, puzzle: Same State NG 3) |  |  |  | 0.104 | 0.0779 | 0.0908
28 | GUGCAACCGUGUGAGGAUAUCGGUGAACAAACAUGAGGAUCACCCAUGUCCGAAGCUCGGUUCUCCGAGAAGGCGCACAGUUGCA [Same State 2 - Mod of Erisin v.3] (puzzle: Same State 2) | 0.0726 | 0.105 | 0.224 |  |  | 
29 | UUUAUACAUGAGGAUCACCCAUGUCAACAAAGUCGAGGAUAUGGGCAUAUUAUCUUAUUUCCAGAAGGCGAAUUCU [salish99_ss1_r3_090] (puzzle: Same State 1) |  | 0.158 |  |  |  | 
30 | UACAAUCUAUCUGAGGAUAUCAUGAAGAAAACAUGAGGAUCACCCAUGUGCAGGAUAACUGCAAAUGAGAAGGCAGAUAGAUUGU [Mat - Same State 2 - Mod - D5] (puzzle: Same State 2) | 0.00819 | 0.0185 | 0.018 |  |  | 
31 | AAAGAAAAACUAGAGGAUAUCCGAGUGGUAACAUGAGGAUCACCCAUGUGAUGAAAGGAACAUGAGGAGAAGGCUAGAAGAAAAA [JL Nando mod 8] (Eterna round: R96, puzzle: Same State 2) |  |  |  | 0.0206 | 0.0476 | 0.0565
